{"source": "IntAct's records for PubMed 21376235", "parents": {"B1": {"name": "RNA polymerase II-associated protein 1 (Saccharomyces cerevisiae), P38351 (parent)", "chain": "MSKKQEYIAPIKYQNSLPVPQLPPKLLVYPESPETNADSSQLINSLYIKTNVTNLIQQDEDLGMPVDLMKFPGLLNKLDSKLLYGFDNVKLDKDDRILLRDPRIDRLTKTDISKVTFLRRTEYVSNTIAAHDNTSLKRKRRLDDGDSDDENLDVNHIISRVEGTFNKTDKWQHPVKKGVKMVKKWDLLPDTASMDQVYFILKFMGSASLDTKEKKSLNTGIFRPVELEEDEWISMYATDHKDSAILENELEKGMDEMDDDSHEGKIYKFKRIRDYDMKQVAEKPMTELAIRLNDKDGIAYYKPLRSKIELRRRRVNDIIKPLVKEHDIDQLNVTLRNPSTKEANIRDKLRMKFDPINFATVDEEDDEDEEQPEDVKKESEGDSKTEGSEQEGENEKDEEIKQEKENEQDEENKQDENRAADTPETSDAVHTEQKPEEEKETLQEE", "partner": "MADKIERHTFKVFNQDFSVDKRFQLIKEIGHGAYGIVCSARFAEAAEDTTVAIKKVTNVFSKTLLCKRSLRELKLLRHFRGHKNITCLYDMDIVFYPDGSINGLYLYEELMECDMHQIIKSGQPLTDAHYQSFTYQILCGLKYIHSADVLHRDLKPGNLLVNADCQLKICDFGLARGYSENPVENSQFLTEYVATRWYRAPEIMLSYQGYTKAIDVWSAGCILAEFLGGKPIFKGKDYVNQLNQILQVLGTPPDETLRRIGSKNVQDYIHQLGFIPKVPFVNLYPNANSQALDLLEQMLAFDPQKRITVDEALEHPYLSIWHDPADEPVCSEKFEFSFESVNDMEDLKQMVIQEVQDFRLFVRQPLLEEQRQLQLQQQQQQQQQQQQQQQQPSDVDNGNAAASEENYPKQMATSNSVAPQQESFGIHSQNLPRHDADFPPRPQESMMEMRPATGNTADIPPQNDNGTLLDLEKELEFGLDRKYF"}}}
{"variants_of": "B1", "conditions": "with slt2_yeast SLT2, Q00772"}
{"variant": "MSKKQEYIAPIKYQNSLPVPQLPPKLLVYPESPETNADSSQLINSLYIKTNVTNLIQQDEDLGMPVDLMKFPGLLNKLDSKLLYGFDNVKLDKDDRILLRDPRIDRLTKTDISKVTFLRRTEYVSNTIAAHDNTSLKRKRRLDDGDSDDENLDVNHIISRVEGTFNKTDKWQHPVKKGVKMVKKWDLLPDAAFMDQVYFILKFMGSASLDTKEKKSLNTGIFRPVELEEDEWISMYATDHKDSAILENELEKGMDEMDDDSHEGKIYKFKRIRDYDMKQVAEKPMTELAIRLNDKDGIAYYKPLRSKIELRRRRVNDIIKPLVKEHDIDQLNVTLRNPSTKEANIRDKLRMKFDPINFATVDEEDDEDEEQPEDVKKESEGDSKTEGSEQEGENEKDEEIKQEKENEQDEENKQDENRAADTPETSDAVHTEQKPEEEKETLQEE", "note": "[T191A;S193F]", "effect of a mutation on the interaction": "decreasing interaction"}
